Data published in patent publication US20120039897A1.

Target: Aβ(1-40) peptide
Assay: cell-based or functional assay

Aβ(1-40) peptide, sequence (peptide, as listed by the source): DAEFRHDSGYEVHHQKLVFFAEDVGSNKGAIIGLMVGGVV

inhibition of Aβ fibril formation (THT fluorescence), antibody 1.3 µM: 20%
B1: ACA (control antibody; humanized 266 antibody, U.S. Pat. No. 7,195,761 B2) (antibody, INN chains, looked up, V domains shown)
VH: EVQLVESGGGLVQPGGSLRLSCAASGFTFSRYSMSWVRQAPGKGLELVAQINSVGNSTYYPDTVKGRFTISRDNAKNTLYLQMNSLRAEDTAVYYCASGDYWGQGTLVTVSS
VL: DVVMTQSPLSLPVTLGQPASISCRSSQSLIYSDGNAYLHWFLQKPGQSPRLLIYKVSNRFSGVPDRFSGSGSGTDFTLKISRVEAEDVGVYYCSQSTHVPWTFGQGTKVEIK
